Experimental data: patent US20130012690

Target: Tfl-bZip (GCN4 residues 226-281, leucine zipper leucines replaced with 5,5,5-trifluoroleucine) Leu to 5,5,5-trifluoroleucine in the GCN4-p1 dimerization domain (four d-position leucines) (UniProt P03069)
Experiment: EMSA

Sequence of Tfl-bZip (GCN4 residues 226-281, leucine zipper leucines replaced with 5,5,5-trifluoroleucine) Leu to 5,5,5-trifluoroleucine in the GCN4-p1 dimerization domain (four d-position leucines) (P03069 whole entry, the tested form may be a part): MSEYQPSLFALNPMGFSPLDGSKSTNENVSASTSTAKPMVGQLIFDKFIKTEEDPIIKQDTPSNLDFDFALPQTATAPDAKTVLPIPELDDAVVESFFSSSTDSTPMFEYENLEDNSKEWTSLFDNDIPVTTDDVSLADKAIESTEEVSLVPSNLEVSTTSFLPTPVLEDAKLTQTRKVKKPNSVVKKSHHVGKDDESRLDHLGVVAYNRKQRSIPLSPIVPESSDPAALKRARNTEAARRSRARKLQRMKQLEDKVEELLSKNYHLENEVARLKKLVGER

| Sequence | Kd (densitometry of mobility shift assay) [nM] | Kd (densitometry, CD at 0 C also shows coil-to-helix transition on DNA binding) [nM] |
| --- | --- | --- |
| GTGGAGATGACTCATCTCCGG (double strand) [AP-1 site oligonucleotide] | 12.5 | – |
| TGGAGATGACGTCATCTCCT (double strand) [CREB site oligonucleotide] | – | 5.4 |
